Drawing on PMC10439028, “SGLT5 is the renal transporter for 1,5-anhydroglucitol, a major player in two rare forms of neutropenia” (Cellular and Molecular Life Sciences: CMLS, 2023), this text covers Km for 5 proteins.

Substrate in series [1]: OC[C@H]1OC(O)[C@@H](O)[C@@H](O)[C@@H]1O
As to the kind of experiment: Radioactive uptake assay (saturation kinetics) in HEK293T cells expressing mouse SGLT4. As to conditions: other: 30 min, Supplementary Fig. 4; pH 7.4; 37.0 °C. In kind it is cell-based. How it is done: (§1) For a typical transporter experiment we proceeded as follows. […] To minimize cell loss during the various washing steps in the radioactive uptake experiments, the wells where the cells were seeded were previously coated with poly- D-lysine, which improved their adhesion to the plastic surface of the wells. For this, each well of the 24-well plates was treated with 200 µl of a 0.01% poly-L-lysine solution for 10 min, washed 3 times with 1 ml of sterilized water and left to dry for 2 h. Only then could the 24-well plates be seeded with the appropriate cell lines and cultured overnight at 37 °C in 5% CO2.
On day two, the radioactive uptake assay could be performed. […]
(§2) Once the uptake medium was added to the cells, the plates were incubated at 37 °C in 5% CO2 during the required time. […] In each experiment, the transport activities were calculated after subtracting a “blank” value, corresponding to the radioactivity in the appropriate control cells (HEK293T cells that were stably or transiently transfected with one of the parent plasmids pEF6/MycHisA, pEF6HisB, pUB82 or pUB83 with no inserted cDNA) that were analyzed in parallel. […]
Supplementary Fig. 4: Transport activities for 1,5-anhydroglucitol and mannose of recombinant mouse SGLT4 and SGLT5 isoforms measured in HEK293T cells. […]

Substrate in series [2]: OC[C@H]1OC[C@H](O)[C@@H](O)[C@@H]1O
As to the kind of experiment: Radioactive uptake assay (saturation kinetics) in HEK293T cells stably overexpressing human SGLT5-iso2. In kind it is cell-based. As to conditions: pH 7.4, 37.0 °C.
Text: (§3) This assay was used to study (1) the transport of 1,5-AG or mannose by the HEK293T model cell lines that stably overexpressed the various transporters or by the transiently transfected HEK293T cells using JetPEI® as a transfection agent prepared as described above and (2) the substrate specificity of each transporter.
as §1
(§4) On day two, the radioactive uptake assay could be performed. The cell culture media was removed by aspiration and cells were incubated for 20 min at 37 °C and 5% CO2 with a basal medium (10 mM HEPES, pH 7.4, 1 mM CaCl2, 1 mM MgCl2, 2 mM KCl) containing 140 mM choline chloride to deplete intracellular […] ions. This was subsequently replaced with the uptake medium (basal medium + 140 mM NaCl, 25 μM cytochalasin B, 1 mg/ml BSA) containing either radioactive U-[^14C]-mannose (15,000 cpm/well) or 2-[^3H]-1,5-AG (30,000 cpm/well) and respectively, non-radioactive mannose or 1,5-AG, at the required concentration in the experiment. […]
(§5) Once the uptake medium was added to the cells, the plates were incubated at 37 °C in 5% CO2 during the required time. […] In each experiment, the transport activities were calculated after subtracting a “blank” value, corresponding to the radioactivity in the appropriate control cells (HEK293T cells that were stably or transiently transfected with one of the parent plasmids pEF6/MycHisA, pEF6HisB, pUB82 or pUB83 with no inserted cDNA) that were analyzed in parallel.

Substrate in series [3]: OC[C@H]1OC(O)[C@@H](O)[C@@H](O)[C@@H]1O
The series is described as above. As to conditions: other: transport of the labelled substrate, Michaelis-Menten fit, Fig. 2B; pH 7.4; 37.0 °C. In kind it is cell-based.
Text: as §3, §1, §4, §5

Substrate in series [4]: OC[C@H]1OC[C@H](O)[C@@H](O)[C@@H]1O
As to the kind of experiment: 1,5-AG uptake in HEK293T cells overexpressing SGLT5 variant Asn96Ile. In kind it is cell-based, human. As to conditions: other: variant Asn96Ile (rs148178887); pH 7.4; 37.0 °C. How it is done:
as §1
(§6) On day two, the radioactive uptake assay could be performed. The cell culture media was removed by aspiration and cells were incubated for 20 min at 37 °C and 5% CO2 with a basal medium (10 mM HEPES, pH 7.4, 1 mM CaCl2, 1 mM MgCl2, 2 mM KCl) containing 140 mM choline chloride to deplete intracellular Na^2+ ions. […]
as §2

Substrate in series [5]: OC[C@H]1OC[C@H](O)[C@@H](O)[C@@H]1O
As to the kind of experiment: 1,5-AG uptake in HEK293T cells overexpressing SGLT5 variant Arg401His. Conditions: other: variant Arg401His (rs754390288); pH 7.4; 37.0 °C. In kind it is cell-based, human. As to the method: as §1, §6, §2

Substrate in series [6]: OC[C@H]1OC(O)[C@@H](O)[C@@H](O)[C@@H]1O
As to the kind of experiment: Radioactive uptake assay (saturation kinetics) in HEK293T cells stably overexpressing human SGLT4. Conditions: other: transport of the labelled substrate, Fig. 2B; pH 7.4; 37.0 °C. In kind it is cell-based.
Text: as §3
as §1, with “CO2. […]” for “CO2.”
as §5

B1: mouse SGLT4 (Mus musculus) (protein)
chain: MNTELVAMEPGVSRNGVRTETTTNPSLGLHTYDIVVVVIYFVFVLAVGIWSSIRASRGTVGGYFLAGRSMTWWPIGASLMSSNVGSGLFIGLAGTGAAGGLAVGGFEWNATFLLLALGWIFVPVYIAAGVVTMPQYLKKRFGGQRIQVYMSVLSLILYIFTKISTDIFSGALFIQMALGWNLYLSTVILLVVTAVYTIAGGLTAVIYTDALQTVIMVGGALVLMFLGFQEVGWYPGLQQLYRQAIPNTTVPNTTCHLPRPDAFHMLRDPVNGDIPWPGLIFGLTVLATWCWCTDQVIVQRSLAAKNLSHAKGGSVLGGYLKILPMFFIVMPGMISRALYPDEVACVDPDICQRVCGARVGCSNIAYPKLVMALMPVGLRGLMIAVIMAALMSSLTSIFNSSSTLFAIDVWQRFRRQASEQELMVVGRLFVVFLVVISILWIPIIQSSNSGQLFDYIQSITSYLAPPITALFLLAIFCKRVNEPGAFWGLMFGLVVGILRMILEFSYSAPACGEMDRRPAVLKDFHYLYFALLLCGLTAIIIVVISFFTEPIPDDKLARLTWWTRNCAVSDLQKKTSVSVNNTEDDNSPGLAGRPVVEGPAGDEEEANTTQGPEQPGALHRSWGKWLWNWFCGLSGAPQQALSPAEKAVLEQKLTSIEEEPLWRRVCNINAIILLAINIFLWGYFA
notes: expressed in transfected cells; host or cells: HEK293T
On to B1, for which, in series [1], the Km – broadly, the substrate concentration at which the rate is half of its maximum – worked out at 200 µM.

B2: human SGLT5 (Homo sapiens) (protein)
chain: MAANSTSDLHTPGTQLSVADIIVITVYFALNVAVGIWSSCRASRNTVNGYFLAGRDMTWWPIGASLFASSEGSGLFIGLAGSGAAGGLAVAGFEWNATYVLLALAWVFVPIYISSEIVTLPEYIQKRYGGQRIRMYLSVLSLLLSVFTKISLDLYAGALFVHICLGWNFYLSTILTLGITALYTIAGGLAAVIYTDALQTLIMVVGAVILTIKAFDQIGGYGQLEAAYAQAIPSRTIANTTCHLPRTDAMHMFRDPHTGDLPWTGMTFGLTIMATWYWCTDQVIVQRSLSARDLNHAKAGSILASYLKMLPMGLIIMPGMISRALFPDDVGCVVPSECLRACGAEVGCSNIAYPKLVMELMPIGLRGLMIAVMLAALMSSLTSIFNSSSTLFTMDIWRRLRPRSGERELLLVGRLVIVALIGVSVAWIPVLQDSNSGQLFIYMQSVTSSLAPPVTAVFVLGVFWRRANEQGAFWGLIAGLVVGATRLVLEFLNPAPPCGEPDTRPAVLGSIHYLHFAVALFALSGAVVVAGSLLTPPPQSVQIENLTWWTLAQDVPLGTKAGDGQTPQKHAFWARVCGFNAILLMCVNIFFYAYFA
notes: expressed in transfected cells
B2: the Km in series [2] (other: hSGLT5 WT, Table 1 experiments) was determined as 226 ± 7 µM; in series [2] (other: transport of the labelled substrate, Michaelis-Menten fit, Fig. 2B), 167 µM; in series [3], 1729 ± 568 µM.

B3: hSGLT5 Asn96Ile (Homo sapiens; N96I) (protein)
chain: MAANSTSDLHTPGTQLSVADIIVITVYFALNVAVGIWSSCRASRNTVNGYFLAGRDMTWWPIGASLFASSEGSGLFIGLAGSGAAGGLAVAGFEWIATYVLLALAWVFVPIYISSEIVTLPEYIQKRYGGQRIRMYLSVLSLLLSVFTKISLDLYAGALFVHICLGWNFYLSTILTLGITALYTIAGGLAAVIYTDALQTLIMVVGAVILTIKAFDQIGGYGQLEAAYAQAIPSRTIANTTCHLPRTDAMHMFRDPHTGDLPWTGMTFGLTIMATWYWCTDQVIVQRSLSARDLNHAKAGSILASYLKMLPMGLIIMPGMISRALFPDDVGCVVPSECLRACGAEVGCSNIAYPKLVMELMPIGLRGLMIAVMLAALMSSLTSIFNSSSTLFTMDIWRRLRPRSGERELLLVGRLVIVALIGVSVAWIPVLQDSNSGQLFIYMQSVTSSLAPPVTAVFVLGVFWRRANEQGAFWGLIAGLVVGATRLVLEFLNPAPPCGEPDTRPAVLGSIHYLHFAVALFALSGAVVVAGSLLTPPPQSVQIENLTWWTLAQDVPLGTKAGDGQTPQKHAFWARVCGFNAILLMCVNIFFYAYFA
notes: pUB83-hSGLT5-iso2 as well as the various SGLT5 mutants obtained were used to transduce HEK293T cells; expressed in transfected cells; host or cells: HEK293T, lentiviral transduction (pUB83)
Take B3: the Km in series [4] is 1565 ± 302 µM.

B4: hSGLT5 Arg401His (Homo sapiens; R401H) (protein)
chain: MAANSTSDLHTPGTQLSVADIIVITVYFALNVAVGIWSSCRASRNTVNGYFLAGRDMTWWPIGASLFASSEGSGLFIGLAGSGAAGGLAVAGFEWNATYVLLALAWVFVPIYISSEIVTLPEYIQKRYGGQRIRMYLSVLSLLLSVFTKISLDLYAGALFVHICLGWNFYLSTILTLGITALYTIAGGLAAVIYTDALQTLIMVVGAVILTIKAFDQIGGYGQLEAAYAQAIPSRTIANTTCHLPRTDAMHMFRDPHTGDLPWTGMTFGLTIMATWYWCTDQVIVQRSLSARDLNHAKAGSILASYLKMLPMGLIIMPGMISRALFPDDVGCVVPSECLRACGAEVGCSNIAYPKLVMELMPIGLRGLMIAVMLAALMSSLTSIFNSSSTLFTMDIWRRLHPRSGERELLLVGRLVIVALIGVSVAWIPVLQDSNSGQLFIYMQSVTSSLAPPVTAVFVLGVFWRRANEQGAFWGLIAGLVVGATRLVLEFLNPAPPCGEPDTRPAVLGSIHYLHFAVALFALSGAVVVAGSLLTPPPQSVQIENLTWWTLAQDVPLGTKAGDGQTPQKHAFWARVCGFNAILLMCVNIFFYAYFA
notes: as for B3
Take B4: the Michaelis-Menten constant (Km) in series [5] stood at 331 ± 13 µM.

B5: human SGLT4 (Homo sapiens) (protein)
chain: MSKELAAMGPGASGDGVRTETAPHIALDSRVGLHAYDISVVVIYFVFVIAVGIWSSIRASRGTIGGYFLAGRSMSWWPIGASLMSSNVGSGLFIGLAGTGAAGGLAVGGFEWNATWLLLALGWVFVPVYIAAGVVTMPQYLKKRFGGQRIQVYMSVLSLILYIFTKISTDIFSGALFIQMALGWNLYLSTGILLVVTAVYTIAGGLMAVIYTDALQTVIMVGGALVLMFLGFQDVGWYPGLEQRYRQAIPNVTVPNTTCHLPRPDAFHILRDPVSGDIPWPGLIFGLTVLATWCWCTDQVIVQRSLSAKSLSHAKGGSVLGGYLKILPMFFIVMPGMISRALFPDEVGCVDPDVCQRICGARVGCSNIAYPKLVMALMPVGLRGLMIAVIMAALMSSLTSIFNSSSTLFTIDVWQRFRRKSTEQELMVVGRVFVVFLVVISILWIPIIQSSNSGQLFDYIQAVTSYLAPPITALFLLAIFCKRVTEPGAFWGLVFGLGVGLLRMILEFSYPAPACGEVDRRPAVLKDFHYLYFAILLCGLTAIVIVIVSLCTTPIPEEQLTRLTWWTRNCPLSELEKEAHESTPEISERPAGECPAGGGAAENSSLGQEQPEAPSRSWGKLLWSWFCGLSGTPEQALSPAEKAALEQKLTSIEEEPLWRHVCNINAVLLLAINIFLWGYFA
notes: as for B2
As to B5, in series [6], the Km was found to be 81 ± 8 µM.
